According to patent US20260265379A1 (IMCHECK THERAPEUTICS, published 2026):

B1: bsAb038 (bispecific antibody)
heavy (part 1 of 2): QVQLVQSGAEVKKPGASVKLSCKASGYIFTRYYMYWVKQRPGQGLEWIGEINPNNGGTKFNEKFKNRATLTVDKSISTAYMELSRLRSDDTAVYYCSREDDYDGTPFAMDYWGQGTLVTVSS
heavy (part 2 of 2): GGGGSGGGGSGGGGSGGGGSEIVLTQSPATLSLSPGERATLSCRASKGVSTSGYSYLHWYQQKPGQAPRLLIYLASYLESGVPARFSGSGSGTDFTLTISSLEPEDFAVYYCQHSRDLPLTFGGGTKVEIKGGGGSGGGGSGGGGSGGGGSQVQLVQSGVEVKKPGASVKVSCKASGYTFTNYYMYWVRQAPGQGLEWMGGINPSNGGTNFNEKFKNRVTLTTDSSTTTAYMELKSLQFDDTAVYYCARRDYRFDMGFDYWGQGTTVTVSS
heavy: QVQLVQSGAEVKKPGASVKLSCKASGYIFTRYYMYWVKQRPGQGLEWIGEINPNNGGTKFNEKFKNRATLTVDKSISTAYMELSRLRSDDTAVYYCSREDDYDGTPFAMDYWGQGTLVTVSS
light: not shown
notes: IgG anti-BTN3A, one scFv anti-PD-1; not shown: IgG1 CH1-hinge-CH2-CH3
B2: bsAb052 (bispecific antibody)
heavy (part 1 of 2): QVQLVQSGAEVKKPGASVKLSCKASGYIFTRYYMYWVKQRPGQGLEWIGEINPNNGGTKFNEKFKNRATLTVDKSISTAYMELSRLRSDDTAVYYCSREDDYDGTPFAMDYWGQGTLVTVSS
heavy (part 2 of 2): GGGGSGGGGSGGGGSGGGGSQVQLVQSGVEVKKPGASVKVSCKASGYTFTNYYMYWVRQAPGQGLEWMGGINPSNGGTNFNEKFKNRVTLTTDSSTTTAYMELKSLQFDDTAVYYCARRDYRFDMGFDYWGQGTTVTVSSGGGGSGGGGSGGGGSGGGGSEIVLTQSPATLSLSPGERATLSCRASKGVSTSGYSYLHWYQQKPGQAPRLLIYLASYLESGVPARFSGSGSGTDFTLTISSLEPEDFAVYYCQHSRDLPLTFGGGTKVEIK
heavy: GGGGSGGGGSGGGGSGGGGSQVQLVQSGVEVKKPGASVKVSCKASGYTFTNYYMYWVRQAPGQGLEWMGGINPSNGGTNFNEKFKNRVTLTTDSSTTTAYMELKSLQFDDTAVYYCARRDYRFDMGFDYWGQGTTVTVSSGGGGSGGGGSGGGGSGGGGSEIVLTQSPATLSLSPGERATLSCRASKGVSTSGYSYLHWYQQKPGQAPRLLIYLASYLESGVPARFSGSGSGTDFTLTISSLEPEDFAVYYCQHSRDLPLTFGGGTKVEIK
light: not shown
notes: one Fab arm anti-BTN3A, two scFv anti-PD-1; not shown: IgG1 CH1-hinge-CH2-CH3; CH2-CH3 (Fc)
B3: bsAb049 (bispecific antibody)
heavy 1: QVQLVQSGVEVKKPGASVKVSCKASGYTFTNYYMYWVRQAPGQGLEWMGGINPSNGGTNFNEKFKNRVTLTTDSSTTTAYMELKSLQFDDTAVYYCARRDYRFDMGFDYWGQGTTVTVSSGGGGSGGGGSGGGGSGGGGSEIVLTQSPATLSLSPGERATLSCRASKGVSTSGYSYLHWYQQKPGQAPRLLIYLASYLESGVPARFSGSGSGTDFTLTISSLEPEDFAVYYCQHSRDLPLTFGGGTKVEIKGGGGSGGGGSGGGGSGGGGSQVQLVQSGAEVKKPGASVKLSCKASGYIFTRYYMYWVKQRPGQGLEWIGEINPNNGGTKFNEKFKNRATLTVDKSISTAYMELSRLRSDDTAVYYCSREDDYDGTPFAMDYWGQGTLVTVSS
heavy 2: QVQLVQSGAEVKKPGASVKLSCKASGYIFTRYYMYWVKQRPGQGLEWIGEINPNNGGTKFNEKFKNRATLTVDKSISTAYMELSRLRSDDTAVYYCSREDDYDGTPFAMDYWGQGTLVTVSS
light: not shown
notes: as for B1
B4: bsAb051 (bispecific antibody)
heavy (part 1 of 2): QVQLVQSGAEVKKPGASVKLSCKASGYIFTRYYMYWVKQRPGQGLEWIGEINPNNGGTKFNEKFKNRATLTVDKSISTAYMELSRLRSDDTAVYYCSREDDYDGTPFAMDYWGQGTLVTVSS
heavy (part 2 of 2): GGGGSGGGGSGGGGSGGGGSEVQLVESGGGLVQPGGSLRLSCAASGFTFSRYWMSWVRQAPGKGLEWVANIKQDGSEKYYVDSVKGRFTISRDNAKNSLYLQMNSLRAEDTAVYYCAREGGWFGELAFDYWGQGTLVTVSSGGGGSGGGGSGGGGSGGGGSEIVLTQSPGTLSLSPGERATLSCRASQRVSSSYLAWYQQKPGQAPRLLIYDASSRATGIPDRFSGSGSGTDFTLTISRLEPEDFAVYYCQQYGSLPWTFGQGTKVEIK
heavy: GGGGSGGGGSGGGGSGGGGSEVQLVESGGGLVQPGGSLRLSCAASGFTFSRYWMSWVRQAPGKGLEWVANIKQDGSEKYYVDSVKGRFTISRDNAKNSLYLQMNSLRAEDTAVYYCAREGGWFGELAFDYWGQGTLVTVSSGGGGSGGGGSGGGGSGGGGSEIVLTQSPGTLSLSPGERATLSCRASQRVSSSYLAWYQQKPGQAPRLLIYDASSRATGIPDRFSGSGSGTDFTLTISRLEPEDFAVYYCQQYGSLPWTFGQGTKVEIK
light: not shown
notes: one Fab arm anti-BTN3A, two scFv anti-PD-L1; not shown: IgG1 CH1-hinge-CH2-CH3; CH2-CH3 (Fc)
B5: bsAb056 (bispecific antibody)
heavy 1: GGGGSGGGGSGGGGSGGGGSQVQLVQSGVEVKKPGASVKVSCKASGYTFTNYYMYWVRQAPGQGLEWMGGINPSNGGTNFNEKFKNRVTLTTDSSTTTAYMELKSLQFDDTAVYYCARRDYRFDMGFDYWGQGTTVTVSSGGGGSGGGGSGGGGSGGGGSEIVLTQSPATLSLSPGERATLSCRASKGVSTSGYSYLHWYQQKPGQAPRLLIYLASYLESGVPARFSGSGSGTDFTLTISSLEPEDFAVYYCQHSRDLPLTFGGGTKVEIK
heavy 2: QVQLVQSGAEVKKPGASVKLSCKASGYIFTRYYMYWVKQRPGQGLEWIGEINPNNGGTKFNEKFKNRATLTVDKSISTAYMELSRLRSDDTAVYYCSREDDYDGTPFAMDYWGQGTLVTVSS
light: not shown
notes: one Fab arm anti-BTN3A, one scFv anti-PD-1; not shown: CH2-CH3 (Fc); IgG1 CH1-hinge-CH2-CH3
B6: bsAb047 (bispecific antibody)
heavy 1: EIVLTQSPATLSLSPGERATLSCRASKGVSTSGYSYLHWYQQKPGQAPRLLIYLASYLESGVPARFSGSGSGTDFTLTISSLEPEDFAVYYCQHSRDLPLTFGGGTKVEIKGGGGSGGGGSGGGGSGGGGSQVQLVQSGVEVKKPGASVKVSCKASGYTFTNYYMYWVRQAPGQGLEWMGGINPSNGGTNFNEKFKNRVTLTTDSSTTTAYMELKSLQFDDTAVYYCARRDYRFDMGFDYWGQGTTVTVSSGGGGSGGGGSGGGGSGGGGSQVQLVQSGAEVKKPGASVKLSCKASGYIFTRYYMYWVKQRPGQGLEWIGEINPNNGGTKFNEKFKNRATLTVDKSISTAYMELSRLRSDDTAVYYCSREDDYDGTPFAMDYWGQGTLVTVSS
heavy 2: QVQLVQSGAEVKKPGASVKLSCKASGYIFTRYYMYWVKQRPGQGLEWIGEINPNNGGTKFNEKFKNRATLTVDKSISTAYMELSRLRSDDTAVYYCSREDDYDGTPFAMDYWGQGTLVTVSS
light: not shown
notes: as for B1
B7: bsAb020 (bispecific antibody)
heavy: DIQMTQSPSSLSASVGDRVTITCHASQNINVWLSWYQQKPGKAPKLLIYKASNLHTGVPSRFTGSGSGTDFTFTISSLQPEDIATYYCQQGQTYPYTFGQGTKLEIKGGGGSGGGGSGGGGSGGGGSQVQLVQSGAEVKKPGASVKLSCKASGYIFTRYYMYWVKQRPGQGLEWIGEINPNNGGTKFNEKFKNRATLTVDKSISTAYMELSRLRSDDTAVYYCSREDDYDGTPFAMDYWGQGTLVTVSSGGGGSGGGGSGGGGSGGGGSEVQLVESGGGLVQPGGSLRLSCAASGFTFSRYWMSWVRQAPGKGLEWVANIKQDGSEKYYVDSVKGRFTISRDNAKNSLYLQMNSLRAEDTAVYYCAREGGWFGELAFDYWGQGTLVTVSSASTKGPSVFPLAPSSKSTSGGTAALGCLVKDYFPEPVTVSWNSGALTSGVHTFPAVLQSSGLYSLSSVVTVPSSSLGTQTYICNVNHKPSNTKVDKRVEPKSCDKTHTCPPCPAPEFEGGPSVFLFPPKPKDTLMISRTPEVTCVVVDVSHEDPEVKFNWYVDGVEVHNAKTKPREEQYNSTYRVVSVLTVLHQDWLNGKEYKCKVSNKALPASIEKTISKAKGQPREPQVYTLPPSREEMTKNQVSLTCLVKGFYPSDIAVEWESNGQPENNYKTTPPVLDSDGSFFLYSKLTVDKSRWQQGNVFSCSVMHEALHNHYTQKSLSLSPG
light: EIVLTQSPGTLSLSPGERATLSCRASQRVSSSYLAWYQQKPGQAPRLLIYDASSRATGIPDRFSGSGSGTDFTLTISRLEPEDFAVYYCQQYGSLPWTFGQGTKVEIKRTVAAPSVFIFPPSDEQLKSGTASVVCLLNNFYPREAKVQWKVDNALQSGNSQESVTEQDSKDSTYSLSSTLTLSKADYEKHKVYACEVTHQGLSSPVTKSFNRGEC
notes: IgG anti-PD-L1, scFv anti-BTN3A

Columns and labels:
[1] = target: T1, PD-1 at the surface of Jurkat-PD-1 cells (human, UniProt Q15116 25-288); test: flow cytometry, Jurkat-PD-1 cells
T1 construct: whole, on cells
T1 sequence (Q15116 25-288): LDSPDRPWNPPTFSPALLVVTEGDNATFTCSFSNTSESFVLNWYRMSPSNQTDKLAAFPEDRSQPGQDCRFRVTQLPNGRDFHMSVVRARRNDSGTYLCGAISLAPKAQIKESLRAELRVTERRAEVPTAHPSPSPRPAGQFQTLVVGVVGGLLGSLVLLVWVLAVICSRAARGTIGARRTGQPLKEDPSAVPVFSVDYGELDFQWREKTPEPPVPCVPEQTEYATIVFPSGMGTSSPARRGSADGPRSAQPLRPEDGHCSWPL

[2] = target: T2, BTN3A1 at the surface of HEK-BTN3A1 cells (human, UniProt O00481 30-513); test: flow cytometry, HEK-BTN3A1 cells
T2 construct: HEK 293T BTN2A/BTN3A KO cells transduced with a BTN3A1 expressing vector
T2 sequence (O00481 30-513 limits assumed): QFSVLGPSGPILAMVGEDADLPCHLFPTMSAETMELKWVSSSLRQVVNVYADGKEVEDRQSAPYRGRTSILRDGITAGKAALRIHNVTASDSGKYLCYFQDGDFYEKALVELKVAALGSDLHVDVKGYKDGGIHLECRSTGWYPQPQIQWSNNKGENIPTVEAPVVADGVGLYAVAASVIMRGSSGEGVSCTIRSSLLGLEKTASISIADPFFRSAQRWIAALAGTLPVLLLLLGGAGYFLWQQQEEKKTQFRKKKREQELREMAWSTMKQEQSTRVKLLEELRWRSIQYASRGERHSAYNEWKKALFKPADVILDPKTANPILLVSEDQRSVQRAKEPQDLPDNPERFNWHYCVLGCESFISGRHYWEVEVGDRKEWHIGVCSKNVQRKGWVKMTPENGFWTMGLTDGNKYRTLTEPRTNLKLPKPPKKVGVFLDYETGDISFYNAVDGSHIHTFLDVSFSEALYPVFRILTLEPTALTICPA

[3] = target: T1, PD-1 at the surface of Jurkat-PD-1 cells; test: cell-based or functional assay
recombinant human PD-1 = target: T3, recombinant human PD-1 (human, UniProt Q15116 25-167, limits assumed); test: SPR
T3 construct: Soluble antigen in SPR; also called rhPD-1
T3 sequence (Q15116 25-167 limits assumed): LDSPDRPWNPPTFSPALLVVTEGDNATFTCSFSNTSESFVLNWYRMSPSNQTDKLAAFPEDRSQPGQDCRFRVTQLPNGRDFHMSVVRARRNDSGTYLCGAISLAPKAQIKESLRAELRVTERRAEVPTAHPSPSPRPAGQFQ

recombinant human BTN3A1 = target: T4, recombinant human BTN3A1 (human, UniProt O00481 30-254); test: SPR
T4 construct: Soluble form of the antigen used in SPR; also called rhBTN3A1; recombinant BTN3A1 protein
T4 sequence (O00481 30-254 limits assumed): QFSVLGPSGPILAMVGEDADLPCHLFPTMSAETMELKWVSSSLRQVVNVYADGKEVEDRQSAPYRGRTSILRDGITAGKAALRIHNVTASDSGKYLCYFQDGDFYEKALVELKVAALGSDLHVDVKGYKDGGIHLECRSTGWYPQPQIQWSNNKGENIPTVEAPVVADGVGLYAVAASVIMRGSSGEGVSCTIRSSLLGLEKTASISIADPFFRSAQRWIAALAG

[4] = target: T5, PD-L1 at the surface of transduced cells (UniProt Q9NZQ7 19-290, limits assumed); test: flow cytometry, CHO-PD-L1 cells
T5 construct: whole, on cells; CHO-PD-L1 cells in flow cytometry, Raji-PD-L1 cells in the reporter assay; also called CHO-PD-L1; Raji-PD-L1
T5 sequence (Q9NZQ7 19-290 limits assumed): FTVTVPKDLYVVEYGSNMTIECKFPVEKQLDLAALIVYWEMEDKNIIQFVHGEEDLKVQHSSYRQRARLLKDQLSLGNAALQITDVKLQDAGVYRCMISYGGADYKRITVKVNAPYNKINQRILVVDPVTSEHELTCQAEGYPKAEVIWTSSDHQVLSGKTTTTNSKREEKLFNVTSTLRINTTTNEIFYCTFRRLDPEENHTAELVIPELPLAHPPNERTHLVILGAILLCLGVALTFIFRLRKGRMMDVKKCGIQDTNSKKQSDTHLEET

recombinant human PD-L1 = target: T6, recombinant human PD-L1 (human, UniProt Q9NZQ7 19-239, limits assumed); test: SPR
T6 construct: Soluble antigen in SPR; also called rhPD-L1
T6 sequence (Q9NZQ7 19-239 limits assumed): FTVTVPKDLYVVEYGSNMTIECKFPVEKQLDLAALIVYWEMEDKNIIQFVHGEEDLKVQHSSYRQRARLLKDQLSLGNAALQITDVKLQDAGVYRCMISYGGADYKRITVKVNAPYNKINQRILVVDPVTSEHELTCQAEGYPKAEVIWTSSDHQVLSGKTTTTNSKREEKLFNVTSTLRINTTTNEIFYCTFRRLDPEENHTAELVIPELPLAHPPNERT

Binder | MFI at 10 nM [1] [MFI] | MFI at 100 nM [1] [MFI] | MFI at 10 nM [2] [MFI] | MFI at 100 nM [2] [MFI] | Jurkat-PD-1 activation at 10 nM [3] | Jurkat-PD-1 activation at 100 nM [3] | Kd (recombinant human PD-1) [nM] | Kd (recombinant human BTN3A1) [nM] | MFI at 10 nM [4] [MFI] | MFI at 100 nM [4] [MFI] | Kd (recombinant human PD-L1) [nM]
B1 | 160000 | 294000 | 588000 | 1.2e+06 | 1.5 fold-change to medium | 3.5 fold-change to medium | 1.9 | 0.071 | – | – | –
B2 | 185000 | 366000 | 321000 | 785000 | 5.3 fold-change to medium | 7.6 fold-change to medium | 1.8 | 0.069 | – | – | –
B3 | 175000 | 376000 | 460000 | 740000 | 1.3 fold-change to medium | 2.3 fold-change to medium | 0.856 | 0.101 | – | – | –
B4 | – | – | 340000 | 792000 | – | – | – | 0.095 | 578000 | 597000 | 0.033
B5 | – | 334000 | 519000 | 1e+06 | 1.5 fold-change to medium | 3.4 fold-change to medium | 2 | 0.065 | – | – | –
B6 | 264000 | 364000 | 536000 | 866000 | 3.1 fold-change to medium | 8.3 fold-change to medium | 1.4 | 0.168 | – | – | –
B7 | – | – | 997000 | 1.5e+06 | – | – | – | 0.114 | 746000 | 784000 | 0.073
